Assay results from PMC10705379 (bioRxiv, 2023).
Positions count from the first letter of the chain named. Numbers in names are those of the source. Blank lines part the entries; values can stand above or below the molecule they belong to.

What was measured:
[1] = tested on: Swi6-WT (Schizosaccharomyces pombe); experiment: EMSA; conditions: histone H3K9me3
H3K9me3 mononucleosomes = experiment: native gel or EMSA
mass photometry = target: the molecule itself; experiment: mass photometry
MBP-Epe1 = target: T1, MBP-Epe1 (S. pombe, UniProt O94603 1-948); experiment: pull-down
T1 sequence: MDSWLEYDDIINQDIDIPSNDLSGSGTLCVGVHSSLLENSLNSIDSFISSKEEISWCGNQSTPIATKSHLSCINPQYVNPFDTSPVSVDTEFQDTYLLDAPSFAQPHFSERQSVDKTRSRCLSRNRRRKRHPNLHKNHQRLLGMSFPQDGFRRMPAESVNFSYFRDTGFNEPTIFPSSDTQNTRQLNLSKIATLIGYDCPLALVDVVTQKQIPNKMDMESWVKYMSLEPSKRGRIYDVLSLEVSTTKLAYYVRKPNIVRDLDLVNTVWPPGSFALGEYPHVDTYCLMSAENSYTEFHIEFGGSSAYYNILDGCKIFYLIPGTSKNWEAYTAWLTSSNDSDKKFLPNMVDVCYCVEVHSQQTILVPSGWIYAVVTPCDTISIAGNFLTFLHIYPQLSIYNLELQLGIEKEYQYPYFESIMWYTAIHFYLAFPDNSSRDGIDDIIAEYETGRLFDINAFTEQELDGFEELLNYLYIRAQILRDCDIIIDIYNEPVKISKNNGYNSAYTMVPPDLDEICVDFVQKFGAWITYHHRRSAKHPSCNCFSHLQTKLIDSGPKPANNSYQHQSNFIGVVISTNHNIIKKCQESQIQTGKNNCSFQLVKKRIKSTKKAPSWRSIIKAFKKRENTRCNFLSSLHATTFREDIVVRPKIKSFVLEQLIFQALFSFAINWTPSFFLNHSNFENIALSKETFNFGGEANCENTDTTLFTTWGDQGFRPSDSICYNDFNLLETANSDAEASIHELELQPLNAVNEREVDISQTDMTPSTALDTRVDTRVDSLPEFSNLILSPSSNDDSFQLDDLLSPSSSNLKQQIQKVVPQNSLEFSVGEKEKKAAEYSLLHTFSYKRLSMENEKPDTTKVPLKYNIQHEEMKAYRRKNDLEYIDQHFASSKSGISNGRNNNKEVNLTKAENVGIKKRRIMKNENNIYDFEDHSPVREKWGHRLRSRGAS

Molecule: H3K9me3 mononucleosome (Epicypher 16-0315-20)
Kd [1]: 50 nM

Kd (H3K9me3 mononucleosomes): 39 nM
specificity for H3K9me3 over H3K9me0 mononucleosomes (H3K9me3 mononucleosomes): 2.3 fold
Molecule: Swi6-T278Y (recombinant, full length) (from UniProt P40381 1-328) (natural protein)

Kd (H3K9me3 mononucleosomes): 50 nM
specificity for H3K9me3 over H3K9me0 mononucleosomes (H3K9me3 mononucleosomes): 2.4 fold
B1: Swi6-WT (recombinant, full length) (natural protein)
chain: MKKGGVRSYRRSSTSKRSVIDDDSEPELPSMTKEAIASHKADSGSSDNEVESDHESKSSSKKLKENAKEEEGGEEEEEDEYVVEKVLKHRMARKGGGYEYLLKWEGYDDPSDNTWSSEADCSGCKQLIEAYWNEHGGRPEPSKRKRTARPKKPEAKEPSPKSRKTDEDKHDKDSNEKIEDVNEKTIKFADKSQEEFNENGPPSGQPNGHIESDNESKSPSQKESNESEDIQIAETPSNVTPKKKPSPEVPKLPDNRELTVKQVENYDSWEDLVSSIDTIERKDDGTLEIYLTWKNGAISHHPSTITNKKCPQKMLQFYESHLTFRENE
Kd (mass photometry): 0.38 nM
stoichiometry N (mass photometry): 2

binding result (MBP-Epe1): binds
B2: FLAG-Swi6-WT (recombinant) (natural protein)
chain: B1 chain

B3: Swi6-T278K (recombinant, full length) (natural protein)
chain: B1 chain with T278K
Kd (mass photometry): 0.2 nM
stoichiometry N (mass photometry): 2

B4: Swi6-T278Y (recombinant, full length) (natural protein)
chain: B1 chain with T278Y
Kd (mass photometry): 0.27 nM
stoichiometry N (mass photometry): 2
